# Values quoted from earlier work as cited in publication PMC4097889.
# How the values were obtained:
# RXRα LBD (Homo sapiens) [1] = molecular target: RXRα LBD (Homo sapiens) (UniProt P19793); experiment: ITC
# RXRα LBD (Homo sapiens) [2] = molecular target: RXRα LBD (Homo sapiens) (UniProt P19793); experiment: circular dichroism
# UniProt P19793, sequence (P19793 227-458): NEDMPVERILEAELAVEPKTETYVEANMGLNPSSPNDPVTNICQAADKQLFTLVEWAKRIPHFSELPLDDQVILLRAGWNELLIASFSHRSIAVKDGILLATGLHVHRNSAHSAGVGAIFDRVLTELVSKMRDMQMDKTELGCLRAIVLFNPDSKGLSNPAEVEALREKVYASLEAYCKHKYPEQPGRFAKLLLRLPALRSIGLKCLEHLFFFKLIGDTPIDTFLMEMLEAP
substance,measurement,setting,value
GRIP-1 peptide (from UniProt Q15596),Kd,RXRα LBD (Homo sapiens) [1],600 nM
same,Kd,RXRα LBD (Homo sapiens) [2],900 nM
